Columns and labels:
Test in all cases: pull-down
[1] = target: T1, GLABRA3 (GL3), recombinant GST or His fusion protein (Arabidopsis, UniProt Q9FN69 1-637)
T1 sequence: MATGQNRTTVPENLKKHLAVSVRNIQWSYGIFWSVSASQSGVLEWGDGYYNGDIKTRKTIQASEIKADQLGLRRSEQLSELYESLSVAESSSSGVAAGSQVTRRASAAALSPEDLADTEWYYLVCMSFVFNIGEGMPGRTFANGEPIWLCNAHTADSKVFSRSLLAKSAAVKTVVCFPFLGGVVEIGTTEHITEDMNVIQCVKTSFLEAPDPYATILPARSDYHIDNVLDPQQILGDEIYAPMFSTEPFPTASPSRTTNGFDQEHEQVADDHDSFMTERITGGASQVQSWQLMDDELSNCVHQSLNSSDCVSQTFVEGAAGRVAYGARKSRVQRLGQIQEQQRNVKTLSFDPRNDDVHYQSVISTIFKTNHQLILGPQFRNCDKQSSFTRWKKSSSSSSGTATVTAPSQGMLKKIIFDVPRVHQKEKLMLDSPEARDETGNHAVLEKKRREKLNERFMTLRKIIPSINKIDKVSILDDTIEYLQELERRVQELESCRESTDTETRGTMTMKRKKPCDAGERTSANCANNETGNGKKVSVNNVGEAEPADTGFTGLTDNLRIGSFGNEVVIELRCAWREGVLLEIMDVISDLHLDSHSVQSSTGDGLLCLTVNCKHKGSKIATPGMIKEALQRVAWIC

[2] = target: T2, ENHANCER OF GLABRA3 (EGL3), recombinant GST or His fusion protein (Arabidopsis, UniProt Q9CAD0 1-596)
T2 sequence: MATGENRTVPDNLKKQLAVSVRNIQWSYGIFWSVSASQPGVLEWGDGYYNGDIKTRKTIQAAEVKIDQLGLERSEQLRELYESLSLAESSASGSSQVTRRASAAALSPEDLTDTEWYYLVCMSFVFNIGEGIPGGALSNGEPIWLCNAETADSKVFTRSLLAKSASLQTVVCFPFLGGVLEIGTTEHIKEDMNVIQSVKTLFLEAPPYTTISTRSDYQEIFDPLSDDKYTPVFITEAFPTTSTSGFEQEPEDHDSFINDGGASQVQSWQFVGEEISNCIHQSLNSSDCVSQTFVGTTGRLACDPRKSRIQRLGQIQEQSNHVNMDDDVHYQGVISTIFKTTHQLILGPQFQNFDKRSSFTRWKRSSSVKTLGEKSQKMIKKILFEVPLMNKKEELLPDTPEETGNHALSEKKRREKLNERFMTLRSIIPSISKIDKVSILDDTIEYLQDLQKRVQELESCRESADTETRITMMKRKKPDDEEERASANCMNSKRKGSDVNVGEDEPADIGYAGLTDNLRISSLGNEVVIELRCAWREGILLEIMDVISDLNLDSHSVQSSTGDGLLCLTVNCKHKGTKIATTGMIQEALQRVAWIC

[3] = target: T3, GLABRA1 (GL1), recombinant GST or His fusion protein (Arabidopsis, UniProt P27900 1-228)
T3 sequence: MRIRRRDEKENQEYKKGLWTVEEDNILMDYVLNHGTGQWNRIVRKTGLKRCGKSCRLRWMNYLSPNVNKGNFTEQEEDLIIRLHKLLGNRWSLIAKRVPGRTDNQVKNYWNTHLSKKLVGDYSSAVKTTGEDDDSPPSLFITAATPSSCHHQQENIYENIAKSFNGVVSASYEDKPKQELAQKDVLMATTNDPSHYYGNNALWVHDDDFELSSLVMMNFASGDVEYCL

Measured: binding result

B1: TRIPTYCHON (TRY), recombinant GST or His fusion protein (natural protein)
chain: MDNTDRRRRRKQHKIALHDSEEVSSIEWEFINMTEQEEDLIFRMYRLVGDRWDLIAGRVPGRQPEEIERYWIMRNSEGFADKRRQLHSSSHKHTKPHRPRFSIYPS
binds: all assays above

From paper PMC2564731 (Molecular Systems Biology, 2008)
